Assay results taken from the supplement of paper PMC10567573.

B1: CLCN6 (parent)
chain: FQSISLRKIQFNFPYFRSDRDKRD

Variants of: B1
Experiment: protein stability index of a GFP-peptide fusion (GPS, HEK-293T) (PSI 1-6); higher = more stable
Settings: c terminus: a fixed tail appended
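Note: lentivirally expressed fusions sorted by FACS into six bins by GFP to DsRed ratio, PSI derived from sequencing read proportions per bin multiplied by bin number.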

Variant	protein stability index
FQSISPRKIQFNFPYFRSDRDKRD	2.78
FQSISCRKIQFNFPYFRSDRDKRD	1.53
FQSISERKIQFNFPYFRSDRDKRD	2.08
FQSISNRKIQFNFPYFRSDRDKRD	1.68
FQSISQRKIQFNFPYFRSDRDKRD	2.13
FQSISHRKIQFNFPYFRSDRDKRD	2.03
FQSISSRKIQFNFPYFRSDRDKRD	1.66
FQSISARKIQFNFPYFRSDRDKRD	2.68
FQSISTRKIQFNFPYFRSDRDKRD	2.59
FQSISLNKIQFNFPYFRSDRDKRD	1.97
FQSISLWKIQFNFPYFRSDRDKRD	1.77
FQSISLHKIQFNFPYFRSDRDKRD	2.02
FQSISLAKIQFNFPYFRSDRDKRD	2.38
FQSISLKKIQFNFPYFRSDRDKRD	1.59
FQSISLMKIQFNFPYFRSDRDKRD	1.21
FQSISLQKIQFNFPYFRSDRDKRD	1.62
FQSISLVKIQFNFPYFRSDRDKRD	2.97
FQSISLPKIQFNFPYFRSDRDKRD	3.68
FQSISLLKIQFNFPYFRSDRDKRD	1.37
FQSISLEKIQFNFPYFRSDRDKRD	2.56
FQSISLCKIQFNFPYFRSDRDKRD	1.81
FQSISLIKIQFNFPYFRSDRDKRD	1.77
FQSISLTKIQFNFPYFRSDRDKRD	1.78
FQSISLSKIQFNFPYFRSDRDKRD	2.4

Variant	protein stability index
FQSISLRKIQFIFPYFRSDRDKRD	2.06
FQSISLRKIQFVFPYFRSDRDKRD	1.9
FQSISLRKIQFEFPYFRSDRDKRD	1.5
FQSISLRKIQFAFPYFRSDRDKRD	1.09
FQSISLRKIQFSFPYFRSDRDKRD	1.65
FQSISLRKIQFRFPYFRSDRDKRD	2.59
FQSISLRKIQFDFPYFRSDRDKRD	1.53
FQSISLRKIQFMFPYFRSDRDKRD	1.54
FQSISLRKIQFKFPYFRSDRDKRD	2.04
FQSISLRKIQFTFPYFRSDRDKRD	2.37
FDSISLRKIQFNFPYFRSDRDKRD	2.46
FGSISLRKIQFNFPYFRSDRDKRD	1.54
FISISLRKIQFNFPYFRSDRDKRD	1.06
FKSISLRKIQFNFPYFRSDRDKRD	2.5
FNSISLRKIQFNFPYFRSDRDKRD	1.62
FSSISLRKIQFNFPYFRSDRDKRD	1.96
FASISLRKIQFNFPYFRSDRDKRD	2.17
FVSISLRKIQFNFPYFRSDRDKRD	5.36
FCSISLRKIQFNFPYFRSDRDKRD	1.9
FRSISLRKIQFNFPYFRSDRDKRD	1.91
FFSISLRKIQFNFPYFRSDRDKRD	1.53
FTSISLRKIQFNFPYFRSDRDKRD	2.73
FLSISLRKIQFNFPYFRSDRDKRD	2.31
FYSISLRKIQFNFPYFRSDRDKRD	1.33

Variant	protein stability index
FESISLRKIQFNFPYFRSDRDKRD	2.69
FQSISLREIQFNFPYFRSDRDKRD	2.63
FQSISLRLIQFNFPYFRSDRDKRD	2.64
FQSISLRPIQFNFPYFRSDRDKRD	2.92
FQSISLRYIQFNFPYFRSDRDKRD	2.09
FQSISLRHIQFNFPYFRSDRDKRD	2.92
FQSISLRSIQFNFPYFRSDRDKRD	1.31
FQSISLRMIQFNFPYFRSDRDKRD	2.08
FQSISLRTIQFNFPYFRSDRDKRD	1.44
FQSISLRQIQFNFPYFRSDRDKRD	2.12
FQSISLRWIQFNFPYFRSDRDKRD	2.43
FQSISLRNIQFNFPYFRSDRDKRD	2.18
FQSISLRRIQFNFPYFRSDRDKRD	1.74
FQSISLRCIQFNFPYFRSDRDKRD	1.75
FQSISLRIIQFNFPYFRSDRDKRD	2.78
FQSISLRKIQFNFPDFRSDRDKRD	2.31
FQSISLRKIQFNFPGFRSDRDKRD	2.68
FQSISLRKIQFNFPAFRSDRDKRD	3.09
FQSISLRKIQFNFPFFRSDRDKRD	1.48
FQSISLRKIQFNFPCFRSDRDKRD	2.21
FQSISLRKIQFNFPEFRSDRDKRD	2.7
FQSIRLRKIQFNFPYFRSDRDKRD	1.77
FQSIELRKIQFNFPYFRSDRDKRD	2.21
FQSIILRKIQFNFPYFRSDRDKRD	1.4

Variant	protein stability index
FQSIMLRKIQFNFPYFRSDRDKRD	1.46
FQSIGLRKIQFNFPYFRSDRDKRD	1.02
FQSIQLRKIQFNFPYFRSDRDKRD	1.66
FQSIHLRKIQFNFPYFRSDRDKRD	1.74
FQSIFLRKIQFNFPYFRSDRDKRD	2.62
FQSIDLRKIQFNFPYFRSDRDKRD	1.96
FQSIPLRKIQFNFPYFRSDRDKRD	1.82
FQSITLRKIQFNFPYFRSDRDKRD	1.42
FQSIALRKIQFNFPYFRSDRDKRD	1.82
FQSIYLRKIQFNFPYFRSDRDKRD	1.98
FQSINLRKIQFNFPYFRSDRDKRD	1.82
FQSIKLRKIQFNFPYFRSDRDKRD	1.7
FQSISLRKISFNFPYFRSDRDKRD	1.98
FQSISLRKIIFNFPYFRSDRDKRD	2.33
FQSISLRKILFNFPYFRSDRDKRD	1.67
FQSISLRKIKFNFPYFRSDRDKRD	1.67
FQSISLRKIAFNFPYFRSDRDKRD	1.56
FQSISLRKIYFNFPYFRSDRDKRD	1
FQSISLRKIVFNFPYFRSDRDKRD	2.31
FQSISLRKIPFNFPYFRSDRDKRD	1.74
FQSISLRKIDFNFPYFRSDRDKRD	2.04
FQSISLRKINFNFPYFRSDRDKRD	1.95
